# Measurements reported in patent publication US20230250170A1.
# Where two headings read alike, the source gives them in different places.
# Experiments:
# [1] = molecular target: human NPR1 on HEK293/hNPR1 cells (human) (UniProt P16066)
# [2] = molecular target: human NPR1 on HEK293/hNPR1 cells (human) (UniProt P16066); remark: listed apart in the source
# [3] = molecular target: human NPR1 on HEK293/hNPR1 cells (human) (UniProt P16066); remark: listed apart in the source
# [4] = molecular target: human NPR1 on HEK293/hNPR1 cells (human) (UniProt P16066); remark: listed apart in the source
# human NPR1 on HEK293/hNPR1 cells (human), sequence (P16066 33-1061): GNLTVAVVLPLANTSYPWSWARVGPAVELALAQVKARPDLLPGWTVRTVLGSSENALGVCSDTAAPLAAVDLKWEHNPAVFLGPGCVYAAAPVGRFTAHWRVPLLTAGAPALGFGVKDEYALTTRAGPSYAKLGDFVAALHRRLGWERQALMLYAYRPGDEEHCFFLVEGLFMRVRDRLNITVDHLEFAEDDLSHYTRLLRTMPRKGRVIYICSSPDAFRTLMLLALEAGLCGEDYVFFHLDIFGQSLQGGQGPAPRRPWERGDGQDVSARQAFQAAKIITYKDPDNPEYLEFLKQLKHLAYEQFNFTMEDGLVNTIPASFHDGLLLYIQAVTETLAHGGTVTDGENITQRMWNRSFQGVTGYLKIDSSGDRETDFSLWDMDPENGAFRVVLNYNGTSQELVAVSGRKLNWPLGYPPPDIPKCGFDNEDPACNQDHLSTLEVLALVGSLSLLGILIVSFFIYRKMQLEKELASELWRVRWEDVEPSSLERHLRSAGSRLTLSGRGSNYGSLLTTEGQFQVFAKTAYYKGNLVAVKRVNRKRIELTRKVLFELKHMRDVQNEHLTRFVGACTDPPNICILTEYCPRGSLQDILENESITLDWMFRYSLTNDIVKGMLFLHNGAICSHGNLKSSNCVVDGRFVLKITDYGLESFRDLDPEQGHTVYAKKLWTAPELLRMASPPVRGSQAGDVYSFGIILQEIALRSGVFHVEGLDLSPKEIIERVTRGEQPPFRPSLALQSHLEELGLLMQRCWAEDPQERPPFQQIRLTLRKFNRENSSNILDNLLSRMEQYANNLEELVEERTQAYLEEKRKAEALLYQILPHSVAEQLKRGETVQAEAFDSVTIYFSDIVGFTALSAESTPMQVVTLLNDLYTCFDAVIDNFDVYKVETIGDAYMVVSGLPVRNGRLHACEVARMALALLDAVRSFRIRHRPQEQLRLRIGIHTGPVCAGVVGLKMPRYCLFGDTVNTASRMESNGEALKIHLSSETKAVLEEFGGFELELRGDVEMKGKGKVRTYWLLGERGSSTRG
binder,measurement,setting,value
"SLRRSSCFGGRMDRIGAQSGLGCNSFRY (ligand, UniProt P01160 124-151, looked up) [atrial natriuretic peptide (ANP)]","EC50 (read off the curve); cGMP accumulation, HEK293/hNPR1 cells, ANP after pre-treatment with 50 nM H4H22034N",[1],0.6 nM
same,"EC50 (read off the curve); cGMP accumulation, HEK293/hNPR1 cells, ANP after pre-treatment with 150 nM H4H22034N",[1],0.6 nM
same,"EC50 (read off the curve); cGMP accumulation, HEK293/hNPR1 cells, ANP after pre-treatment with 450 nM H4H22034N",[1],0.6 nM
same,"EC50 (read off the curve); cGMP accumulation, HEK293/hNPR1 cells, ANP after pre-treatment with 50 nM REGN7541",[2],0.2 nM
same,"EC50 (read off the curve); cGMP accumulation, HEK293/hNPR1 cells, ANP after pre-treatment with 150 nM REGN7541",[2],0.8 nM
same,"EC50 (read off the curve); cGMP accumulation, HEK293/hNPR1 cells, ANP alone (dilution buffer)",[2],0.07 nM
same,"EC50 (read off the curve); cGMP accumulation, HEK293/hNPR1 cells, ANP after pre-treatment with 50 nM REGN7544",[3],0.3 nM
same,"EC50 (read off the curve); cGMP accumulation, HEK293/hNPR1 cells, ANP after pre-treatment with 150 nM REGN7544",[3],0.8 nM
same,"EC50 (read off the curve); cGMP accumulation, HEK293/hNPR1 cells, ANP after pre-treatment with 450 nM REGN7544",[3],40 nM
same,"EC50 (read off the curve); cGMP accumulation, HEK293/hNPR1 cells, ANP alone (dilution buffer)",[3],0.1 nM
same,"EC50 (read off the curve); cGMP accumulation, HEK293/hNPR1 cells, ANP after pre-treatment with 50 nM REGN7548",[4],0.7 nM
same,"EC50 (read off the curve); cGMP accumulation, HEK293/hNPR1 cells, ANP alone (dilution buffer)",[4],0.09 nM
